B1: Lysozyme C, P61626 (parent)
chain: MKALIVLGLVLLSVTVQGKVFERCELARTLKRLGMDGYRGISLANWMCLAKWESGYNTRATNYNAGDRSTDYGIFQINSRYWCNDGKTPGAVNACHLSCSALLQDNIADAVACAKRVVRDPQGIRAWVAWRNRCQNRDVRQYVQGCGV

Variants of: B1
Settings: Homo sapiens, pH 2.7, Thermal, DSC, Gly-HCl 0.05 M, reversible: yes, structure 1LZ1, whole UniProt chain shown

MKALIVLGLVLLSVTVQGKVFERCELARTLKRLGMDGYRGISLANWMCLAKWESGYNTRATNYNAGDRSTDYGIFQINSRYWCNDGKTPGAVNACHLSCSALLQDNIADAVACAKRTVRDPQGIRAWVAWRNRCQNRDVRQYVQGCGV [V117T]
heat capacity change of unfolding (64.9 °C): 1.41 kcal/mol/K
unfolding enthalpy (calorimetric) (64.9 °C): 104 kcal/mol
Tm: 63.3 °C
change of melting temperature, mutant - wild type (higher = more stable): -1.6 °C
heat capacity change of unfolding: 1.41 kcal/mol/K

MKALIVLGLVLLSVTVQGKVFERCELARTLKRLGMDGYRGISLANWMCLAKWESGYNTRATNYNAGDRSTDYGIFQINSRYWCNDGKTPGAVNACHLSCSALLQDNIADSVACAKRVVRDPQGIRAWVAWRNRCQNRDVRQYVQGCGV [A110S]
heat capacity change of unfolding (64.9 °C): 2.01 kcal/mol/K
unfolding enthalpy (calorimetric) (64.9 °C): 104 kcal/mol
Tm: 67.5 °C
change of melting temperature, mutant - wild type (higher = more stable): 2.6 °C
heat capacity change of unfolding: 2.01 kcal/mol/K

MKALIVLGLVLLSVTVQGKVFERCELARTLKRLGMDGYRGISLANWMCLAKWESGYNTRATNYNAGDRSTDYGIFQINSRYWCNDGKTPGAVNACHLSCSALLQDNIADAVACSKRVVRDPQGIRAWVAWRNRCQNRDVRQYVQGCGV [A114S]
ddG of mutation (higher = less stable) (64.9 °C): 1 kcal/mol
heat capacity change of unfolding (64.9 °C): 1.29 kcal/mol/K
unfolding enthalpy (calorimetric) (64.9 °C): 103 kcal/mol
Tm: 61.6 °C
change of melting temperature, mutant - wild type (higher = more stable): -3.3 °C
heat capacity change of unfolding: 1.29 kcal/mol/K

MKALIVLGLVLLSVTVQGKVFERCELARTLKRLGMDGYRGISLANWMCLAKWESGYNTRATNYNAGDRSTDYGIFQINSRYWCNDGKTPGAVNACHLSCSALLQDNIADAVACAKRVTRDPQGIRAWVAWRNRCQNRDVRQYVQGCGV [V118T]
heat capacity change of unfolding (64.9 °C): 1.53 kcal/mol/K
unfolding enthalpy (calorimetric) (64.9 °C): 107 kcal/mol

MKALIVLGLVLLSVTVQGKVFERCELARTLKRLGMDGYRGISLANWMCLSKWESGYNTRATNYNAGDRSTDYGIFQINSRYWCNDGKTPGAVNACHLSCSALLQDNIADAVACAKRVVRDPQGIRAWVAWRNRCQNRDVRQYVQGCGV [A50S]
ddG of mutation (higher = less stable) (64.9 °C): 0.33 kcal/mol
heat capacity change of unfolding (64.9 °C): 1.65 kcal/mol/K
unfolding enthalpy (calorimetric) (64.9 °C): 111 kcal/mol
Tm: 63.9 °C
change of melting temperature, mutant - wild type (higher = more stable): -1 °C
heat capacity change of unfolding: 1.65 kcal/mol/K

MKALIVLGLVLLSVTVQGKVFERCETARTLKRLGMDGYRGISLANWMCLAKWESGYNTRATNYNAGDRSTDYGIFQINSRYWCNDGKTPGAVNACHLSCSALLQDNIADAVACAKRVVRDPQGIRAWVAWRNRCQNRDVRQYVQGCGV [L26T]
ddG of mutation (higher = less stable) (64.9 °C): 3.73 kcal/mol
heat capacity change of unfolding (64.9 °C): 1.39 kcal/mol/K
unfolding enthalpy (calorimetric) (64.9 °C): 107 kcal/mol
Tm: 52.5 °C
change of melting temperature, mutant - wild type (higher = more stable): -12.4 °C
heat capacity change of unfolding: 1.39 kcal/mol/K

MKALIVLGLVLLSVTVQGKVFERCELSRTLKRLGMDGYRGISLANWMCLAKWESGYNTRATNYNAGDRSTDYGIFQINSRYWCNDGKTPGAVNACHLSCSALLQDNIADAVACAKRVVRDPQGIRAWVAWRNRCQNRDVRQYVQGCGV [A27S]
heat capacity change of unfolding (64.9 °C): 1.27 kcal/mol/K
unfolding enthalpy (calorimetric) (64.9 °C): 106 kcal/mol
Tm: 64.8 °C
change of melting temperature, mutant - wild type (higher = more stable): -0.1 °C
heat capacity change of unfolding: 1.27 kcal/mol/K

MKALIVLGLVLLSVTVQGKVFERCELARTLKRLGMDGYRGISLANWMCLAKWESGYNTRATNYNAGDRSTDYGIFQINSRYWCNDGKTPGAVNACHLSCSALLQDNIADATACAKRVVRDPQGIRAWVAWRNRCQNRDVRQYVQGCGV [V111T]
ddG of mutation (higher = less stable) (64.9 °C): 0.67 kcal/mol
heat capacity change of unfolding (64.9 °C): 1.12 kcal/mol/K
unfolding enthalpy (calorimetric) (64.9 °C): 101 kcal/mol
Tm: 62.6 °C
change of melting temperature, mutant - wild type (higher = more stable): -2.3 °C
heat capacity change of unfolding: 1.12 kcal/mol/K

— FireProtDB (doi:10.1021/bi002792f)
